Test results reported in patent US20060257938A1, “Method of screening for drugs that block ligand binding to a lipid binding protein” (priority 2005, published 2006).
Values joined by “and” are separate entries in the source; they are usually repeats but may differ in a detail not shown here. Equal entries are not always repeated.

B1: 117S, 72A (protein, listed as Rattus norvegicus)
chain: AFDGTWKVDRNENYEKFMEKMGINVVKRKLGAHDNLKLTITQEGNKFTVKESSNFRNIDVVFELGVDFAYSAADGTELTGTWTMEGNKLVGKFKRVDNGKELIAVREISGNELIQTSTYEGVEAKRIFKKE
modifications: PEPTIDE (1)...(131) wild-type rat intestinal fatty acid binding protein
B2: 119F, 72A (protein, listed as Rattus norvegicus)
chain: AFDGTWKVDRNENYEKFMEKMGINVVKRKLGAHDNLKLTITQEGNKFTVKESSNFRNIDVVFELGVDFAYSAADGTELTGTWTMEGNKLVGKFKRVDNGKELIAVREISGNELIQTYTFEGVEAKRIFKKE
modifications: PEPTIDE (1)...(131) wild-type rat intestinal fatty acid binding protein
B3: 119H, 72A (protein, listed as Rattus norvegicus)
chain: AFDGTWKVDRNENYEKFMEKMGINVVKRKLGAHDNLKLTITQEGNKFTVKESSNFRNIDVVFELGVDFAYSAADGTELTGTWTMEGNKLVGKFKRVDNGKELIAVREISGNELIQTYTHEGVEAKRIFKKE
modifications: PEPTIDE (1)...(131) wild-type rat intestinal fatty acid binding protein
B4: 117Y, 72A (protein, listed as Rattus norvegicus)
chain: AFDGTWKVDRNENYEKFMEKMGINVVKRKLGAHDNLKLTITQEGNKFTVKESSNFRNIDVVFELGVDFAYSAADGTELTGTWTMEGNKLVGKFKRVDNGKELIAVREISGNELIQTYTYEGVEAKRIFKKE
modifications: PEPTIDE (1)...(131) wild-type rat intestinal fatty acid binding protein
B5: 119G, 72A (protein, listed as Rattus norvegicus)
chain: AFDGTWKVDRNENYEKFMEKMGINVVKRKLGAHDNLKLTITQEGNKFTVKESSNFRNIDVVFELGVDFAYSAADGTELTGTWTMEGNKLVGKFKRVDNGKELIAVREISGNELIQTYTGEGVEAKRIFKKE
modifications: PEPTIDE (1)...(131) wild-type rat intestinal fatty acid binding protein
B6: 117W, 72A (protein, listed as Rattus norvegicus)
chain: AFDGTWKVDRNENYEKFMEKMGINVVKRKLGAHDNLKLTITQEGNKFTVKESSNFRNIDVVFELGVDFAYSAADGTELTGTWTMEGNKLVGKFKRVDNGKELIAVREISGNELIQTWTYEGVEAKRIFKKE
modifications: PEPTIDE (1)...(131) wild-type rat intestinal fatty acid binding protein
B7: 119C, 72A (protein, listed as Rattus norvegicus)
chain: AFDGTWKVDRNENYEKFMEKMGINVVKRKLGAHDNLKLTITQEGNKFTVKESSNFRNIDVVFELGVDFAYSAADGTELTGTWTMEGNKLVGKFKRVDNGKELIAVREISGNELIQTYTCEGVEAKRIFKKE
modifications: PEPTIDE (1)...(131) wild-type rat intestinal fatty acid binding protein
B8: 119A, 72A (protein, listed as Rattus norvegicus)
chain: AFDGTWKVDRNENYEKFMEKMGINVVKRKLGAHDNLKLTITQEGNKFTVKESSNFRNIDVVFELGVDFAYSAADGTELTGTWTMEGNKLVGKFKRVDNGKELIAVREISGNELIQTYTAEGVEAKRIFKKE
modifications: PEPTIDE (1)...(131) wild-type rat intestinal fatty acid binding protein
B9: 102E, 72A (protein, listed as Rattus norvegicus)
chain: AFDGTWKVDRNENYEKFMEKMGINVVKRKLGAHDNLKLTITQEGNKFTVKESSNFRNIDVVFELGVDFAYSAADGTELTGTWTMEGNKLVGKFKRVDNGKEEIAVREISGNELIQTYTYEGVEAKRIFKKE
modifications: PEPTIDE (1)...(131) wild-type rat intestinal fatty acid binding protein
B10: 117T, 72A (protein, listed as Rattus norvegicus)
chain: AFDGTWKVDRNENYEKFMEKMGINVVKRKLGAHDNLKLTITQEGNKFTVKESSNFRNIDVVFELGVDFAYSAADGTELTGTWTMEGNKLVGKFKRVDNGKELIAVREISGNELIQTTTYEGVEAKRIFKKE
modifications: PEPTIDE (1)...(131) wild-type rat intestinal fatty acid binding protein
B11: 117V, 72A (protein, listed as Rattus norvegicus)
chain: AFDGTWKVDRNENYEKFMEKMGINVVKRKLGAHDNLKLTITQEGNKFTVKESSNFRNIDVVFELGVDFAYSAADGTELTGTWTMEGNKLVGKFKRVDNGKELIAVREISGNELIQTVTYEGVEAKRIFKKE
modifications: PEPTIDE (1)...(131) wild-type rat intestinal fatty acid binding protein
B12: 119I, 72A (protein, listed as Rattus norvegicus)
chain: AFDGTWKVDRNENYEKFMEKMGINVVKRKLGAHDNLKLTITQEGNKFTVKESSNFRNIDVVFELGVDFAYSAADGTELTGTWTMEGNKLVGKFKRVDNGKELIAVREISGNELIQTYTIEGVEAKRIFKKE
modifications: PEPTIDE (1)...(131) wild-type rat intestinal fatty acid binding protein

How the values were obtained:
Type in all cases: binding
[1] = Probe fluorescence ratio response to palmitic acid relative to ADIFAB2; conditions: response relative to ADIFAB2
From the text: (§1) In an alternate preferred embodiment, the protein is rI-FABP that has Ala substituted for Leu at position 72 (rI-FABP-L72A) with the resulting probe named ADIFAB2. […] Other probes useful in embodiments of the invention are shown in Tables 1-6 and are also described in U.S. application Ser. No. 11/085,792, filed Mar. 21, 2005 which is incorporated herein by reference. The indicated substitutions are with reference to the ADIFAB protein of SEQ ID NO: 2.
(§2) ADIFAB2 also has an altered spectral response, making it especially useful for measurements of FFAu in blood samples (Apple et al, Clinical Proteomics, (2004) 1:41-44, U.S. patent application Ser. No. 10/670,958). The wavelengths at the maximum intensities emitted by these fluorescently-labeled I-FABP's in the absence of FFA is about 420 to 480 nm. The emission wavelengths at the maximum intensities emitted by these fluorescently-labeled I-FABP's with FFA bound are between about 495 to 580 nm. Experiments typically involve measuring the fluorescence response within both emission maxima or at wavelengths for which the effect of interfering molecules such as hemoglobin can be eliminated as described in U.S. application Ser. No. 10/670958 and PCT/US2004/030521 and the calculation of the ratio ‘R’ of the two fluorescence intensities. The baseline value for this ratio, measured in the absence of analyte, is designated R0.
(§3) The intensity ratio (“R” value) is determined as follows. The ratio is calculated using the following formula: R=Fλ1/Fλ2 wherein, Fλ1 is the measured fluorescence intensities (intensity of sample with probe present minus intensity of sample without probe present) at wavelength 1 and Fλ2 is the measured fluorescence intensities (intensity of sample with probe present minus intensity of sample without probe present) at wavelength 2. Then, for a given probe, ΔR, the difference in R value between the measurement in the presence of the test compound (agent) and in the absence of the test compound (agent), is calculated as follows: ΔR=R+agent−R0 In some embodiments, the ΔR value may then be compared to some reference, for example, an agent with a known affinity for a given probe, by ΔR/ΔRreference. Measurements of fluorescence intensities are obtained using standard techniques.

[2] = Probe fluorescence ratio response to linoleic acid relative to ADIFAB2; conditions: response relative to ADIFAB2
From the text: as §1, §2, §3

[3] = Probe fluorescence ratio response to linolenic acid relative to ADIFAB2; conditions: response relative to ADIFAB2
From the text: as §1, §2, §3

[4] = Probe fluorescence ratio response to oleic acid relative to ADIFAB2; conditions: response relative to ADIFAB2
From the text: as §1, §2, §3

[5] = Probe fluorescence ratio response to arachidonic acid relative to ADIFAB2; conditions: arachidonic acid; response relative to ADIFAB2
From the text: as §1, §2, §3

| Molecule | DR/DR PA [1] | DR/DR LA [2] | DR/DR LNA [3] | DR/DR OA [4] | DR/DR AA [5] |
| --- | --- | --- | --- | --- | --- |
| B1 | 0.55 and 0.593 | 1.42 and 1.533 | 1.07 and 1.133 | 1.19 and 1.258 | 1.35 and 1.467 |
| B2 | 0.69 | 0.90 | 0.93 | 0.94 | 0.93 |
| B3 | 0.32 | 0.63 | 0.67 | 0.59 | 0.71 |
| B4 | 1.14 | 1.44 | 1.40 | 1.36 | 1.35 |
| B5 | 0.46 | 0.77 | 0.81 | 0.78 | 0.83 |
| B6 | 0.34 and 0.339 | 0.45 and 0.446 | 0.46 and 0.461 | 0.39 and 0.388 | 0.55 and 0.551 |
| B7 | 0.35 and 0.355 | 1.02 and 1.022 | 1.00 and 1.001 | 0.97 and 0.971 | 1.06 and 1.063 |
| B8 | 0.30 and 0.200 | 0.61 and 0.450 | 0.65 and 0.520 | 0.63 and 0.490 | 0.70 and 0.540 |
| B9 | 0.30 | 0.65 | 0.89 | 0.60 | 0.56 |
| B10 | 0.57 and 0.567 | 0.92 and 0.917 | 0.77 and 0.775 | 0.81 and 0.813 | 0.79 and 0.791 |
| B11 | 0.49 and 0.498 | 0.94 and 0.924 | 0.81 and 0.767 | 0.81 and 0.774 | 0.82 and 0.805 |
| B12 | 0.69 and 0.720 | 1.10 and 0.960 | 1.06 and 0.940 | 1.08 and 1.050 | 1.01 and 0.920 |
